US20230227838A1, “ENHANCED CELL SURVIVAL AGAINST BIOTIC AND ABIOTIC STRESSES THROUGH SALICYLICK ACID-INDUCED NPR1 CONDENSATES” (priority 2020, published 2023)

Biological target: sim3-GFP (Arabidopsis thaliana) (UniProt P93002)
Assay: sim3-GFP IP, LC-MS/MS

Sequence of sim3-GFP (Arabidopsis thaliana) (P93002 other isoform, or with tags, fused parts or gaps): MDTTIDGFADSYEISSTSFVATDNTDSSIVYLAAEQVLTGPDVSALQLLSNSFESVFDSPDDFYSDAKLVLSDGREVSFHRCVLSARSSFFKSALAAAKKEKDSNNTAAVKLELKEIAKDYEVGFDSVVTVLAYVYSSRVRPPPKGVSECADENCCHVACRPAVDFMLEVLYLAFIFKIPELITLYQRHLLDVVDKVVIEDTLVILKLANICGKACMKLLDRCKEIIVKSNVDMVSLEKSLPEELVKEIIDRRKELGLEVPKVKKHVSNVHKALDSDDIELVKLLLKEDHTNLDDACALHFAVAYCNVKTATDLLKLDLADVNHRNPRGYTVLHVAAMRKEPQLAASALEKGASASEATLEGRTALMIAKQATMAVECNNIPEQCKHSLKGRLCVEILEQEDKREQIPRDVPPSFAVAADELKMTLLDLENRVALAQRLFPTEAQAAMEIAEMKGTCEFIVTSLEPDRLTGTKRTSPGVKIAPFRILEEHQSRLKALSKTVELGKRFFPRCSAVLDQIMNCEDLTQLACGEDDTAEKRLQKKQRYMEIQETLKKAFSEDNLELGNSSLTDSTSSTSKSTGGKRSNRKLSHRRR

Normalized Fold Change: SA vs Mock [fold]	Binder
4.86	UGT85A1, UDP-Glycosyltransferase superfamily protein (protein, UniProt Q9SK82 1-489, looked up) UDP-glycosyltransferase 85A1: MGSQIIHNSQKPHVVCVPYPAQGHINPMMRVAKLLHARGFYVTFVNTVYNHNRFLRSRGSNALDGLPSFRFESIADGLPETDMDATQDITALCESTMKNCLAPFRELLQRINAGDNVPPVSCIVSDGCMSFTLDVAEELGVPEVLFWTTSGCAFLAYLHFYLFIEKGLCPLKDESYLTKEYLEDTVIDFIPTMKNVKLKDIPSFIRTTNPDDVMISFALRETERAKRASAIILNTFDDLEHDVVHAMQSILPPVYSVGPLHLLANREIEEGSEIGMMSSNLWKEEMECLDWLDTKTQNSVIYINFGSITVLSVKQLVEFAWGLAGSGKEFLWVIRPDLVAGEEAMVPPDFLMETKDRSMLASWCPQEKVLSHPAIGGFLTHCGWNSILESLSCGVPMVCWPFFADQQMNCKFCCDEWDVGIEIGGDVKREEVEAVVRELMDGEKGKKMREKAVEWQRLAEKATEHKLGSSVMNFETVVSKFLLGQKSQD
102	TCH4, XTH22, Xyloglucan endotransglucosylase/hydrolase family protein (protein, UniProt Q38857 22-284, looked up) Xyloglucan endotransglucosylase/hydrolase protein 22: NFQRDVEITWGDGRGQIKNNGELLTLSLDKSSGSGFQSKNEYLFGKVSMQMKLVPGNSAGTVTTLYLKSPGTTWDEIDFEFLGNSSGEPYTLHTNVYTQGKGDKEQQFKLWFDPTANFHTYTILWNPQRIIFTVDGTPIREFKNMESLGTLFPKNKPMRMYSSLWNADDWATRGGLVKTDWSKAPFTASYRGFQQEACVWSNGKSSCPNASKQGTTTGSWLSQELDSTAQQRMRWVQRNYMIYNYCTDAKRFPQGLPKECLAA
8.99	UGT74F2, UDP-glucosyltransferase 74F2 (protein, UniProt O22822 1-449, looked up) UDP-glycosyltransferase 74F2: MEHKRGHVLAVPYPTQGHITPFRQFCKRLHFKGLKTTLALTTFVFNSINPDLSGPISIATISDGYDHGGFETADSIDDYLKDFKTSGSKTIADIIQKHQTSDNPITCIVYDAFLPWALDVAREFGLVATPFFTQPCAVNYVYYLSYINNGSLQLPIEELPFLELQDLPSFFSVSGSYPAYFEMVLQQFINFEKADFVLVNSFQELELHENELWSKACPVLTIGPTIPSIYLDQRIKSDTGYDLNLFESKDDSFCINWLDTRPQGSVVYVAFGSMAQLTNVQMEELASAVSNFSFLWVVRSSEEEKLPSGFLETVNKEKSLVLKWSPQLQVLSNKAIGCFLTHCGWNSTMEALTFGVPMVAMPQWTDQPMNAKYIQDVWKAGVRVKTEKESGIAKREEIEFSIKEVMEGERSKEMKKNVKKWRDLAVKSLNEGGSTDTNIDTFVSRVQSK
3.79	RPP5, Disease resistance protein (TIR-NBS-LRR class) (protein, UniProt F4JNB7 1-1449, looked up) Disease resistance protein RPP5: MAASSSSGRRRYDVFPSFSGVDVRKTFLSHLIEALDGKSINTFIDHGIERSRTIAPELISAIREARISIVIFSKNYASSTWCLNELVEIHKCFNDLGQMVIPVFYDVDPSEVRKQTGEFGKVFEKTCEVSKDKQPGDQKQRWVQALTDIANIAGEDLLNGPNEAHMVEKISNDVSNKLITRSKCFDDFVGIEAHIEAIKSVLCLESKEARMVGIWGQSGIGKSTIGRALFSQLSIQFPLRAFLTYKSTSGSDVSGMKLSWEKELLSEILGQKDIKIEHFGVVEQRLKHKKVLILLDDVDNLEFLKTLVGKAEWFGSGSRIIVITQDRQFLKAHDIDLVYEVKLPSQGLALTMLCRSAFGKDSPPDDFKELAFEVAKLAGHLPLGLNVLGSSLRRRGKKEWMEMMPRLRNGLNGDIMKTLRVSYDRLHQKDQDMFLCIACLFNGFEVSYVKDLLEDNVGLTMLSEKSLIRITPDGHIEMHNLLEKLGREIDRAKSKGNPGKRQFLTNFEDIHEVVTEKTGTETLLGIRLPFEEYFSTRPLLIDKESFKGMRNLQYLKIGDWSDGGQPQSLVYLPLKLRLLDWDDCPLKSLPSTFKAEYLVNLIMKYSKLEKLWEGTLPLGSLKKMNLLCSKNLKEIPDLSNARNLEELDLEGCESLVTLPSSIQNAIKLRKLHCSGVILIDLKSLEGMCNLEYLSVDCSRVEGTQGIVYFPSKLRLLLWNNCPLKRLHSNFKVEYLVKLRMENSDLEKLWDGTQPLGRLKQMFLRGSKYLKEIPDLSLAINLEEVDICKCESLVTFPSSMQNAIKLIYLDISDCKKLESFPTDLNLESLEYLNLTGCPNLRNFPAIKMGCSDVDFPEGRNEIVVEDCFWNKNLPAGLDYLDCLMRCMPCEFRPEYLVFLNVRCYKHEKLWEGIQSLGSLEEMDLSESENLTEIPDLSKATNLKHLYLNNCKSLVTLPSTIGNLQKLVRLEMKECTGLEVLPTDVNLSSLETLDLSGCSSLRTFPLISKSIKWLYLENTAIEEILDLSKATKLESLILNNCKSLVTLPSTIGNLQNLRRLYMKRCTGLEVLPTDVNLSSLGILDLSGCSSLRTFPLISTNIVWLYLENTAIGEVPCCIEDFTRLRVLLMYCCQRLKNISPNIFRLRSLMFADFTDCRGVIKALSDATVVATMEDSVSCVPLSENIEYTCERFWGELYGDGDWDLGTEYFSFRNCFKLDRDARELILRSCFKPVALPGGEIPKYFTYRAYGDSLTVTLPRSSLSQSFLRFKACLVVDPLSEGKGFYRYLEVNFGFNGKQYQKSFLEDEELEFCKTDHLFFCSFKFESEMTFNDVEFKFCCSNRIKECGVRLMYVSQETEYNQQTTRSKKRMRMTSGTSEEYINLAGDQIVADTGLAALNMELSLGEGEASSSTSLEGEALSVDYMITKEQDEDIPFLDPVSDGTWRSFYSAE

The remaining lines, values behind:

Binder	Normalized Fold Change: SA vs Mock [fold]
RPP1, Disease resistance protein (TIR-NBS-LRR class) family (protein, UniProt F4J339 1-1194, looked up) Probable disease resistance protein RPP1: MGSVMSLGCSKRKATNQDVDSESRKRRKICSTNDAENCRFIQDESSWKHPWSLCANRVISVAAVALTNFRFQQDNQESNSSSLSLPSPATSVSRNWKHDVFPSFHGADVRRTFLSHIMESFRRKGIDTFIDNNIERSKSIGPELKEAIKGSKIAIVLLSRKYASSSWCLDELAEIMKCRQMVGQIVMTIFYEVDPTDIKKQTGEFGKAFTKTCRGKPKEQVERWRKALEDVATIAGYHSHSWRNEADMIEKISTDVSNMLNSFTPSRDFDGLVGMRAHMDMLEQLLRLDLDEVRMIGIWGPPGIGKTTIARFLFNQVSDRFQLSAIMVNIKGCYPRPCFDEYSAQLQLQNQMLSQMINHKDIMISHLGVAQERLRDKKVFLVLDEVDQLGQLDALAKETRWFGPGSRIIITTEDLGVLKAHGINHVYKVEYPSNDEAFQIFCMNAFGQKQPHEGFDEIAWEVTCLAGELPLGLKVLGSALRGKSKREWERTLPRLKTSLDGKIGSIIQFSYDVLCDEDKYLFLYIACLFNGESTTKVKELLGKFLDVKQGLHLLAQKSLISFDGERIHMHTLLEQFGRETSRKQFVHHGFTKRQLLVGARGICEVLDDDTTDSRRFIGIHLELSNTEEELNISEKVLERVHDFHFVRIDASFQPERLQLALQDLIYHSPKIRSLNWYGYESLCLPSTFNPEFLVELDMRSSNLRKLWEGTKQLRNLKWMDLSYSSYLKELPNLSTATNLEELKLRNCSSLVELPSSIEKLTSLQILDLENCSSLEKLPAIENATKLRELKLQNCSSLIELPLSIGTATNLKQLNISGCSSLVKLPSSIGDITDLEVFDLSNCSSLVTLPSSIGNLQNLCKLIMRGCSKLEALPININLKSLDTLNLTDCSQLKSFPEISTHISELRLKGTAIKEVPLSIMSWSPLADFQISYFESLMEFPHAFDIITKLHLSKDIQEVPPWVKRMSRLRDLSLNNCNNLVSLPQLSDSLDYIYADNCKSLERLDCCFNNPEIRLYFPKCFKLNQEARDLIMHTCIDAMFPGTQVPACFIHRATSGDSLKIKLKESPLPTTLRFKACIMLVKVNEELMSYDQTPMIVDIVIRDEHNDLKEKIYPSIYPSIYPLLTEHIYTFELDVEEVTSTELVFEFPQLNKRNWKIGECGILQRETRSLRRSSSPDLSPESSRVSSYDHCLRGD	13.7
ISU1, SufE/NifU family protein (protein, UniProt O49627 51-167, looked up) Iron-sulfur cluster assembly protein 1: PNVGTGLVGAPACGDVMKLQIKVDEKTGQIVDARFKTFGCGSAIASSSVATEWVKGKAMEDVLTIKNTEIAKHLSLPPVKLHCSMLAEDAIKAAVKDYKEKRVKTNGAAAAGETTQA	3.44
G6PD6, glucose-6-phosphate dehydrogenase 6 (protein, UniProt Q9FJI5 1-515, looked up) Glucose-6-phosphate 1-dehydrogenase 6, cytoplasmic: MGSGQWHVEKRSTFRNDSFVREYGIVPETGCLSIIVLGASGDLAKKKTFPALFNLYRQGFLNPDEVHIFGYARTKISDEELRDRIRGYLVDEKNAEQAEALSKFLQLIKYVSGPYDAEEGFQRLDKAISEHEISKNSTEGSSRRLFYLALPPSVYPSVCKMIKTCCMNKSDLGGWTRIVVEKPFGKDLESAEQLSSQIGELFDESQIYRIDHYLGKELVQNMLVLRFANRFFLPLWNRDNIENVQIVFREDFGTEGRGGYFDEYGIIRDIIQNHLLQVLCLVAMEKPISLKPEHIRDEKVKVLQSVVPISDDEVVLGQYEGYRDDDTVPNDSNTPTFATTILRIHNERWEGVPFILKAGKALNSRKAEIRIQFKDVPGDIFRCQKQGRNEFVIRLQPSEAMYMKLTVKQPGLDMNTVQSELDLSYGQRYQGVAIPEAYERLILDTIKGDQQHFVRRDELKVAWEIFTPLLHRIDKGEVKSIPYKPGSRGPKEADQLLEKAGYLQTHGYIWIPPTL	4.1
ARD3, acireductone dioxygenase 3 (protein, UniProt Q8W108 1-199, looked up) Acireductone dioxygenase 3: MGEVVKDGREEVIQAWYMDDSEEDQRLPHHKDPKEFLSLDKLAELGVLSWRLDADNYETDEDLKKIRESRGYSYMDFCEVCPEKLPNYEVKVKSFFEEHLHTDEEIRYCVAGSGYFDVRDRNEAWIRVWVKKGGMIVLPAGIYHRFTVDSDNYIKAMRLFVGEPVWTPYNRPHDHLPARKEYIDNFVKVNEGGVIDASA	8.57
LON2, lon protease 2 (protein, UniProt O64948 1-888, looked up) Lon protease homolog 2, peroxisomal: MAETVELPSRLAILPFRNKVLLPGAIIRIRCTSHSSVTLVEQELWQKEEKGLIGILPVRDDAEGSSIGTMINPGAGSDSGERSLKFLVGTTDAQKSDAKDQQDLQWHTRGVAARALHLSRGVEKPSGRVTYVVVLEGLSRFNVQELGKRGPYSVARITSLEMTKAELEQVKQDPDFVALSRQFKTTAMELVSVLEQKQKTGGRTKVLLETVPIHKLADIFVASFEMSFEEQLSMLDSVDLKVRLSKATELVDRHLQSIRVAEKITQKVEGQLSKSQKEYLLRQQMRAIKEELGDNDDDEDDVAALERKMQAAGMPSNIWKHAQRELRRLKKMQPQQPGYNSSRVYLELLADLPWDKASEEHELDLKAAKERLDSDHYGLAKVKQRIIEYLAVRKLKPDARGPVLCFVGPPGVGKTSLASSIAAALGRKFVRLSLGGVKDEADIRGHRRTYIGSMPGRLIDGLKRVGVCNPVMLLDEIDKTGSDVRGDPASALLEVLDPEQNKSFNDHYLNVPYDLSKVVFVATANRVQPIPPPLLDRMELIELPGYTQEEKLKIAMRHLIPRVLDQHGLSSEFLKIPEAMVKNIIQRYTREAGVRSLERNLAALARAAAVMVAEHEQSLPLSKDVQKLTSPLLNGRMAEGGEVEMEVIPMGVNDHEIGGTFQSPSALVVDETMLEKILGPPRFDDSEAADRVASAGVSVGLVWTTFGGEVQFVEATSMVGKGEMHLTGQLGDVIKESAQLALTWVRARASDFKLALAGDMNVLDGRDIHIHFPAGAVPKDGPSAGVTLVTALVSLFSQKRVRADTAMTGEMTLRGLVLPVGGIKDKILAAHRYGIKRVILPQRNSKDLVEVPAAVLSSLEVILAKRMEDVLENAFEGGCPWRNNYSKL	2.47
NSP5, nitrile specifier protein 5 (protein, UniProt Q93XW5 1-326, looked up) Thiohydroximate-O-sulfate sulfur/sulfate-lyase (nitrile-forming) NSP5: MCPVENKWLKVGQKGAGPGARSSHAMTVVGNKVYCFGGELKPTIHIDNDLYVFDLETQEWSIAPATGEAPFPCFGVSMVTIGSTIYVYGGRDDKRRYNGLHSYDTETNEWKLLAPVEEGLPGRSYHSMAGDDRKVYVFGGVTAKGRVNTLHAYDVVDQKWVEYPAAGEACKGRGAPGLVVVEGRIWVLFGFDGNELGDIHCFDLASEQWKAVETTGDVPAARSVFPAVSYGKYIVIYGGEEEPHELMHMGAGKMSGEVYQLDTETLVWERIVCGNEEEKPSQRGWCAFTKAVKDGEEGLLVHGGNSPTNERLDDLVFWGFSHLNVN	5240
